The values that follow come from patent US6602659.

The target in this assay is human ST receptor protein (human) (UniProt P25092). Put plainly: receptor binding on colorectal tumor samples (local and metastasized); method and ligand not described.
UniProt P25092, sequence (P25092 other isoform, or with tags, fused parts or gaps limits assumed): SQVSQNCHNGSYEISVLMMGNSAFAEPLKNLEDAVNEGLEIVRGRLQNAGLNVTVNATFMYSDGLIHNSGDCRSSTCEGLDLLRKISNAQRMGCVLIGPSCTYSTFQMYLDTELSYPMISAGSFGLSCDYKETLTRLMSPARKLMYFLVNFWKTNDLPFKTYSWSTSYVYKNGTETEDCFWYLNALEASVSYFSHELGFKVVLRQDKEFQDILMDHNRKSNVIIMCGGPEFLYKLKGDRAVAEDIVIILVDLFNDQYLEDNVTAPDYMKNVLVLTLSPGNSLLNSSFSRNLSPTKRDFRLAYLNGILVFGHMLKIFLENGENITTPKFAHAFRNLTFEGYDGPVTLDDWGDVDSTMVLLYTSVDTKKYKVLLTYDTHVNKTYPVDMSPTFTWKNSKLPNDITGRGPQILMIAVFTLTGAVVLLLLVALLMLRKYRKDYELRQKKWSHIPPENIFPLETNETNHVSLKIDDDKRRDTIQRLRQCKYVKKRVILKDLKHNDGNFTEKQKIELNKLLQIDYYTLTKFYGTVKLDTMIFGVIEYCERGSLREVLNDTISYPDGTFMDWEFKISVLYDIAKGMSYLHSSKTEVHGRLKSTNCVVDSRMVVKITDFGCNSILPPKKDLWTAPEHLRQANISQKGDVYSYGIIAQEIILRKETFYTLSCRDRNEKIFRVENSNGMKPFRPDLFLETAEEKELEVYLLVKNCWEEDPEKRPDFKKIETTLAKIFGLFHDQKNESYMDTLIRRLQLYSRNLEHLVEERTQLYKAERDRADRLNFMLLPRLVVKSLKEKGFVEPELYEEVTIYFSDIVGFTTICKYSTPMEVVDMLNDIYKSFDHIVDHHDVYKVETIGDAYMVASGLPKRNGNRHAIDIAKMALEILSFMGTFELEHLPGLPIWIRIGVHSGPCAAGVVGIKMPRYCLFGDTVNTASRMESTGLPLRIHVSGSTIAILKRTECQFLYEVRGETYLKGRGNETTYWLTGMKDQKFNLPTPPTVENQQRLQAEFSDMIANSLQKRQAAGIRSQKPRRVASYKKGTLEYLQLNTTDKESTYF

With heat-stable toxin (ST) (peptide), the affinity is less than 1e-07.
